US12668821B2, “Enzymatic production of glucaric acid from glucuronic acid” (THE GOVERNING COUNCIL OF THE UNIVERSITY OF TORONTO, priority 2019, dated 2026)

Assays:
[1] = Activity screening of GOOX variants and glucose oxidase on GlcA; type: biochemical; conditions: enzyme 16 nM, 37° C., 10 mM GlcA (FIG. 11 legend; b102 says 100 mM), 100 mM Tris pH 8.0 (GOOX variants) or 50 mM sodium acetate pH 5.0 (GO)
Description: (§1) FIG. 11: Activity screening of GOOX variants and glucose oxidase (GO) on GlcA and MeGlcA substrates. The enzymes (16 nM) were assayed at 37° C. with 10 mM GlcA and 1 mM MeGlcA in 100 mM Tris buffer pH 8.0 (for GOOX variants) or 50 mM sodium acetate pH 5.0 (for GO). The dotted line indicates the activity of GOOX-VN for MeGlcA for ease of comparison. “CtCBM22A-wtGOOX” and “CtCBM22A-Y300A” represent fusion proteins where the C terminus of the xylan-binding protein CtCBM22A (described in Vuong and Master, 2014) is fused to the N terminus GOOX.
(§2) The specific activity of GOOX-Y300A (16 nM) on MeGlcA and GlcA (1 mM) was measured in 50 mM Tris buffer pH 8.0 at 40° C. The amount of methyl glucaric acid was determined by measuring the release of H2O2 using a previously published colorimetric assay (Lin et al., 1991). The kinetics of GOOX-Y300A on these acidic sugars were measured at the same condition, but using up to 60 mM MeGlcA and GlcA and in 0.3 M Tris buffer pH 8.0.

[2] = Activity screening of GOOX variants and glucose oxidase on MeGlcA; type: biochemical; conditions: enzyme 16 nM, 37° C., 1 mM MeGlcA (FIG. 11 legend; b102 says 10 mM), 100 mM Tris pH 8.0 (GOOX variants) or 50 mM sodium acetate pH 5.0 (GO)
Description: as §1, §2

| Molecule | nmol oxidized GlcA Mean [1] | nmol oxidized MeGlcA Mean [2] |
| --- | --- | --- |
| Y300N: GOOX variant with Y300N relative to SEQ ID NO: 1 (protein, listed as Sarocladium strictum, (1)..(206) FAD-binding domain; (207)..(474) substrate-binding domain) NSINACLAAADVEFHEEDSEGWEMDGTAFNLRVDYDPVAIAIPRSTEDIAAAVQCGLDAGVQISAKGGGHSYGSYGFGGEDGHLMLELDRMYRVSVDDDNVATIQGGARLGYTALELLDQGNRALTHGTCPAVGIGGHVLGGGYGFATHTHGLTLDWLVGATVVLADASIVHVSKTENADLFWALRGGGGGFAIVSEFEFNTFEAPEIITTYQVTTTWNRKQHVAGLKALQDWAENTMPRELSMRLEINANALNWEGNYFGNAKDLKKVLQPIMKKAGGKSTISKLVETDWYGQINTYLNGADLNITYNYDVHEYFYANSLTAPRLSDEAISAFVDYKFDNSSVRPGRGWWIQWDFHGGKNSALASHSNDETAYAHRDQLWLWQFYDNIYDYENNTSPYPESGFEFMQGFVATIEDTLPEDRKGKYFNYADTTLDKEEAQKLYWRGNLEKLQAIKAKYDPEDVFGNVVSVEPIA | -0.03749 nmol | 0.08201 nmol |
| E314A: GOOX variant with E314A relative to SEQ ID NO: 1 (protein, listed as Sarocladium strictum, (1)..(206) FAD-binding domain; (207)..(474) substrate-binding domain) NSINACLAAADVEFHEEDSEGWEMDGTAFNLRVDYDPVAIAIPRSTEDIAAAVQCGLDAGVQISAKGGGHSYGSYGFGGEDGHLMLELDRMYRVSVDDDNVATIQGGARLGYTALELLDQGNRALTHGTCPAVGIGGHVLGGGYGFATHTHGLTLDWLVGATVVLADASIVHVSKTENADLFWALRGGGGGFAIVSEFEFNTFEAPEIITTYQVTTTWNRKQHVAGLKALQDWAENTMPRELSMRLEINANALNWEGNYFGNAKDLKKVLQPIMKKAGGKSTISKLVETDWYGQINTYLYGADLNITYNYDVHAYFYANSLTAPRLSDEAISAFVDYKFDNSSVRPGRGWWIQWDFHGGKNSALASHSNDETAYAHRDQLWLWQFYDNIYDYENNTSPYPESGFEFMQGFVATIEDTLPEDRKGKYFNYADTTLDKEEAQKLYWRGNLEKLQAIKAKYDPEDVFGNVVSVEPIA | -0.03292 nmol | 1.0403 nmol |
| W351F: GOOX variant with W351F relative to SEQ ID NO: 1 (protein, listed as Sarocladium strictum, (1)..(206) FAD-binding domain; (207)..(474) substrate-binding domain) NSINACLAAADVEFHEEDSEGWEMDGTAFNLRVDYDPVAIAIPRSTEDIAAAVQCGLDAGVQISAKGGGHSYGSYGFGGEDGHLMLELDRMYRVSVDDDNVATIQGGARLGYTALELLDQGNRALTHGTCPAVGIGGHVLGGGYGFATHTHGLTLDWLVGATVVLADASIVHVSKTENADLFWALRGGGGGFAIVSEFEFNTFEAPEIITTYQVTTTWNRKQHVAGLKALQDWAENTMPRELSMRLEINANALNWEGNYFGNAKDLKKVLQPIMKKAGGKSTISKLVETDWYGQINTYLYGADLNITYNYDVHEYFYANSLTAPRLSDEAISAFVDYKFDNSSVRPGRGWFIQWDFHGGKNSALASHSNDETAYAHRDQLWLWQFYDNIYDYENNTSPYPESGFEFMQGFVATIEDTLPEDRKGKYFNYADTTLDKEEAQKLYWRGNLEKLQAIKAKYDPEDVFGNVVSVEPIA | -0.04298 nmol | 0.08201 nmol |
